Molecular target: full-length human poly(A)-binding protein (PABP, PABPC1) (human, UniProt P11940 1-636)
Test: FRET or BRET

Sequence of full-length human poly(A)-binding protein (PABP, PABPC1) (P11940 whole entry): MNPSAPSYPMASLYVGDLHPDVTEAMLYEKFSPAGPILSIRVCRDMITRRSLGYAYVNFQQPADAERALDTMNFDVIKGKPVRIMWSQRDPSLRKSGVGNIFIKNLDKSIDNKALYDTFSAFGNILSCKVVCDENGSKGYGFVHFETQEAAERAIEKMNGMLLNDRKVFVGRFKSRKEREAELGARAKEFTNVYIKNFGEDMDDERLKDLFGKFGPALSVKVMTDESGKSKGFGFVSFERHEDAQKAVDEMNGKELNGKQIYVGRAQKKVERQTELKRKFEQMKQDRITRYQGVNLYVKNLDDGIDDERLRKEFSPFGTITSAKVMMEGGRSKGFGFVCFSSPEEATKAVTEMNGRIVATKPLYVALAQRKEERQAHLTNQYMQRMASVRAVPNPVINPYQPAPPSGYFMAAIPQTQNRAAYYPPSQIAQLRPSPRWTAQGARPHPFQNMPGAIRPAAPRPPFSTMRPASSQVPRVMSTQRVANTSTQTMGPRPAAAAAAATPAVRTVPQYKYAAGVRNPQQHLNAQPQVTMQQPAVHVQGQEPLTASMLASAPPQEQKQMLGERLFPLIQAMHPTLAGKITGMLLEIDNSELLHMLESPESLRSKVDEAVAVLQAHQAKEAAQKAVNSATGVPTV

kon: 153000 M⁻¹ s⁻¹
B1: GST-tagged human PABP-interacting protein 2 (Paip2) (natural protein, UniProt Q9BPZ3 1-127, looked up)
chain: MKDPSRSSTSPSIINEDVIINGHSHEDDNPFAEYMWMENEEEFNRQIEEELWEEEFIERCFQEMLEEEEEHEWFIPARDLPQTMDQIQDQFNDLVISDGSSLEDLVVKSNLNPNAKEFVPGVKYGNI

From paper PMC3936760 (Nucleic Acids Research, 2013)
